From PMC6383945, “Elk1 affects katanin and spastin proteins via differential transcriptional and post-transcriptional regulations”

Target: T1, Elk1-db (ETS DNA-binding domain) (Homo sapiens, UniProt P19419 1-96)
T1 sequence: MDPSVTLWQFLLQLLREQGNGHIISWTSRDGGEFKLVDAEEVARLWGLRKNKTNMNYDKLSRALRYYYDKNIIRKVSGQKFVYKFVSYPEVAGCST
Assay: EMSA; 10 mM Tris pH 7.5, 50 mM KCl, 1 mM DTT, 1 ug poly(dI-dC), 5% glycerol, 1 mM EDTA, 0.3% BSA, protease inhibitors; 20 fmol probe, 300 ng Elk1-db; 20 min room temperature; 6% native PAGE in 0.5X TBE at 4 C
Details: protein: recombinant; tags: 6xHis; label: 3' biotin on both strands; blunt before labelling

B1: KATNA1 UTR1_WT (+113/+122) (dsDNA)
DNA 1: CGAGGTCGTCCCCGGCACCGGAAGTGACCCTGGCGGGTTTGT
DNA 2: ACAAACCCGCCAGGGTCACTTCCGGTGCCGGGGACGACCTCG
- binding result: binds

B2: KATNA1 UTR1_Mut (dsDNA)
DNA 1: CGAGGTCGTCCCCGGTGTTAAGGATGACCCTGGCGGGTTTGT
DNA 2: ACAAACCCGCCAGGGTCATCCTTAACACCGGGGACGACCTCG
- binding result: no binding

B3: KATNA1 UTR2_WT (+253/+262) (dsDNA)
DNA 1: GACTGGGTCAGGCCCTCCTTCCTCGCTGCCGGGATCTCCACTC
DNA 2: GAGTGGAGATCCCGGCAGCGAGGAAGGAGGGCCTGACCCAGTC
- binding result: no binding

B4: KATNA1 UTR2_Mut (dsDNA)
DNA 1: GACTGGGTCAGGCCCTCTCCTTCTATTGCCGGGATCTCCACTC
DNA 2: GAGTGGAGATCCCGGCAATAGAAGGAGAGGGCCTGACCCAGTC
- binding result: no binding

B5: KATNA1 Promoter_WT (-428/-419) (dsDNA)
DNA 1: AGGGTGGAGATTGAGACTGGAGGAAGCCCTGTGCAGTACATAT
DNA 2: ATATGTACTGCACAGGGCTTCCTCCAGTCTCAATCTCCACCCT
- binding result: no binding

B6: KATNA1 Promoter_Mut (dsDNA)
DNA 1: AGGGTGGAGATTGAGACCAAGAAGGACCCTGTGCAGTACATAT
DNA 2: ATATGTACTGCACAGGGTCCTTCTTGGTCTCAATCTCCACCCT
- binding result: no binding
